We go through one substance from PMC4491846.

The target in this assay is Tulane virus (TV) virions, CsCl gradient-purified (Tulane virus).

For the substance “Maackia amurensis leukoagglutinin (MAL), biotinylated (from UniProt P0DKL3 30-278) (natural protein)”, the TV infectivity in LLC-MK2 cells by plaque assay after treatment with MAL (dose series up to 100 μg/mL; maximum enhancement at 50 μg/mL), percent of the untreated control was 262%.
